For series [1], the system named is αvβ3 integrin. Nature of the series: in vivo. The conditions noted are these: pig. On the procedure:
(§1) Coronary stenosis was created in 11 domestic, 3-month old pigs weighing 30–35 kg by implanting a bottleneck stent in the proximal LAD coronary artery as described previously. In addition, a sham group of 4 pigs underwent a catheterization procedure without the stent implantation. Myocardial [^68Ga]NODAGA-RGD uptake was evaluated by PET 13 ± 4 days after the stent implantation. […] Three pigs without a perfusion defect during adenosine stress were considered as procedural failures and excluded from further in vivo analyses.
(§2) Then a [^68Ga]NODAGA-RGD PET was performed with an ECAT EXACT HR+ scanner (Siemens-CTI, Knoxville, TN, USA). The studies were started with a 10 min transmission scan. The dynamic scanning started at the same time as 310 ± 43 MBq (230–400 MBq) of [^68Ga]NODAGA-RGD was injected via the ear vein. The acquisition time frames were as follows: 18 × 10 s, 4 × 30 s, 2 × 120 s, 1 × 180 s, 4 × 300 s, 3 × 600 s (total duration 62 min). The acquired [^68Ga]NODAGA-RGD PET data were corrected for scatter, random counts, and dead time and iteratively reconstructed with ordered-subsets expectation maximization (OSEM) algorithm using 2 iterations and 32 subsets. The whole transaxial field of view (70 cm) was reconstructed in 256 × 256 matrix yielding to pixel size of 2.57 mm × 2.57 mm. The device produces 63 axial planes with a slice thickness of 2.43 mm.
(§3) For quantification of [^68Ga]NODAGA-RGD uptake in the myocardium, the [^15O]water images and the [^68Ga]NODAGA-RGD images were co-registered using the high blood pool activity of the [^68Ga]NODAGA-RGD as a landmark (Fig. 1). The myocardial contours from the [^15O]water images were copied to the co-registered [^68Ga]NODAGA-RGD data. Then, the polar maps of [^68Ga]NODAGA-RGD uptake expressed as standardized uptake value (SUV) (time frame 52–62 min after injection) in the LV myocardium were generated using matching image orientation and sampling points. The region of interest (ROI) defining the ischemic area was copied from the [^15O]water polar maps to measure [^68Ga]NODAGA-RGD uptake in this region. The septum was excluded from the measurements to prevent spillover from the blood in the right ventricle. The mean and maximum SUVs were determined from the ischemic area. In order to measure the SUVs, ROI was modified to include only the mid-myocardium in order to avoid spill-over from blood. The maximum SUV within the ROI was determined from area showing visually the highest uptake. One segment in the posterolateral wall (segment 11) that was always outside the ischemic area was used to measure [^68Ga]NODAGA-RGD uptake in the remote myocardium. The ischemic-to-remote SUV ratio was calculated in the ischemic area and remote myocardium.

Series [2] in a line: in vivo. The conditions noted are these: Finnish landrace, pig, iv, total radioactivity. The method, then:
as §1, §2, §3

The nature of series [3]: in vivo. Particulars: pig, iv, total radioactivity. The method, then:
During the [^68Ga]NODAGA-RGD PET imaging, blood samples (2 ml) were obtained into heparinized tubes from the femoral artery 2, 5, 10, 20, 30, 40, 50 and 60 min after the injection of [^68Ga]NODAGA-RGD for the measurements of total radioactivity, radiometabolites (proportion of authentic tracer), and plasma-to-blood ratio. The radioactivities of whole blood and blood plasma were measured using a gamma counter (1480 Wizard 3″; PerkinElmer, Turku, Finland).

The nature of the next series: in vitro. Particulars: plasma. It counts as in vitro ADME. The method, then:
To evaluate species-dependent differences, the [^68Ga]NODAGA-RGD binding to human, pig and rat plasma proteins was measured using in vitro assay as described previously.

For series [4], the system named is αvβ3 integrin. Particulars: pig, in vivo. From the text: Subsequently, the pigs were euthanized and their hearts were excised. Based on 1% 2,3,5-triphenyltetrazolium chloride (TTC) (Sigma-Aldrich, Saint Louis, MO, USA) staining, tissue samples were obtained from the injured ischemic (TTC negative) and adjacent viable ischemic (TTC positive) myocardium as well as from the remote non-ischemic myocardium. Autoradiography of myocardial tissue sections was used to compare [^68Ga]NODAGA-RGD uptake with the histology, αvβ3 integrin expression and CD31 on endothelial cells. Tissue samples were frozen in isopentane mixed with dry ice and cut into serial 40 and 7 µm sections for autoradiography and immunohistochemical stainings respectively, using a cryomicrotome. Tissue sections of 40 μm thickness were immediately exposed on a phosphor imaging plate (BAS-TR2025, Fuji Photo Film Co. Ltd., Tokyo, Japan) for 2 h. The distribution of radioactivity on the plate was visualized and quantified using a Fluorescent Image Analyzer (Fujifilm FLA-5100, Fuji Photo Film Co. Ltd., Tokyo, Japan). Autoradiographs and hematoxylin & eosin (HE) staining images of the same sections were co-registered and [^68Ga]NODAGA-RGD accumulation was measured by drawing ROIs covering remote myocardium, and either viable or injured ischemic myocardium using TINA™ 2.10f software (Raytest Isotopenmessgeräte GmbH., Straubenhardt, Germany). Results were expressed as photostimulated luminescence per square millimetre (PSL/mm^2) and normalized for the injected radioactivity dose, animal weight and the radioactivity decay. Serial tissue sections of 7 μm were stained with H&E for general histology, Masson’s trichrome for differentiation myocytes and collagenous scar, and immunohistochemistry with antibodies against of CD31 on endothelial cells (dilution 1:250, Thermo Scientific, Cheshire, UK), αvβ3 integrin (dilution 1:200, Millipore, Temecula, CA, USA) and α-smooth muscle actin on myofibroblasts (dilution 1:30,000, Sigma-Aldrich, St. Louis, MO, USA). […]

The subject of series [5] is αvβ3 integrin. Particulars: pig, in vivo. From the text:
Subsequently, the pigs were euthanized and their hearts were excised. Based on 1% 2,3,5-triphenyltetrazolium chloride (TTC) (Sigma-Aldrich, Saint Louis, MO, USA) staining, tissue samples were obtained from the injured ischemic (TTC negative) and adjacent viable ischemic (TTC positive) myocardium as well as from the remote non-ischemic myocardium. Autoradiography of myocardial tissue sections was used to compare [^68Ga]NODAGA-RGD uptake with the histology, αvβ3 integrin expression and CD31 on endothelial cells. Immediately after the PET scanning, the animals were sacrificed by an i.v. injection of potassium chloride (B. Braun Medical Oy, Helsinki, Finland). The heart was excised, the LV was cut into 4 short axis slices from base to apex that were incubated for 15 min in 1% TTC (Sigma-Aldrich, Saint Louis, MO, USA), diluted in phosphate-buffered saline (pH 7.4) at 37 °C, photographed from both sides and the presence of non-viable ischemic area was confirmed visually. Based on the TTC staining, transmural samples containing non-viable and immediately adjacent viable myocardium were collected from the LV wall corresponding to the ischemic area in PET images. Another sample was obtained from the posterior LV wall representative of the remote region (segment number 11). Myocardial samples and a blood sample were weighed and measured for radioactivity using the gamma counter (Wizard). The radioactivity concentration was expressed as standardized uptake values (SUV = ([tissue radioactivity/tissue weight]/[total given radioactivity/animal body weight])).
The source holds these as a separate data set.

The structures appear in SMILES notation. Marks after values point to notes of the source that are not given here.

By fraction unbound is commonly meant the share of the substance not bound to proteins or other matrix. A low value points to extensive binding. With `N=C(N)NCCC[C@@H]1NC(=O)[C@H](CCCCNC(=O)CCC(C(=O)O)N2CCN(CC(=O)O)CCN(CC(=O)O)CC2)NC(=O)[C@@H](Cc2ccc(O)cc2)NC(=O)[C@H](CC(=O)O)NC(=O)CNC1=O` (stereo partly shown) [[^68Ga]NODAGA-RGD, metal not drawn], in the series with αvβ3 integrin [1], the “average myocardial uptake in the ischemic area higher than in the remote myocardium” value is 26%; the “average uptake in the LV myocardium (SUV)” value is reported as 0.42 ± 0.10 SUV; the “uptake in anteroseptal wall (segments 7 and 13) (SUV)” value is recorded as 0.39 ± 0.11 SUV; the “uptake in posterolateral wall (segment 11) (SUV)” value is on record as 0.36 ± 0.078 SUV. Besides, in the series with αvβ3 integrin [1] (iv), the “Injured area SUVMax” value was 0.80 ^† SUV and the “Ischemic area SUVMean” value is given as 0.61* SUV. In the series “in vivo [2]”, the SUV stood at 1.3 ± 0.2 SUV. Also, the tissue to tissue ratio in “in vivo [3]” came out at 1.4 ± 0.1. In “in vitro” (pig), the fraction unbound came out at 0.93 ± 0.017. The compound further returned a fraction unbound in the series “in vitro” (rat) of 0.94 ± 0.011. In addition, in the series with αvβ3 integrin [4], the “mean uptake by autoradiography, injured area” value came to 4.6 ± 2.1 PSL/mm^2; the “mean uptake by autoradiography, remote area” value is recorded as 1.8 ± 0.61 PSL/mm^2; the “mean uptake by autoradiography, viable ischemic area” value came to 2.2 ± 0.85 PSL/mm^2. Besides, in the series on αvβ3 integrin [5], the “radioactivity in tissue sample from injured myocardium (SUV)” value stood at 0.79 ± 0.21 SUV, the “radioactivity in tissue sample from remote myocardium (SUV)” value was determined as 0.49 ± 0.21 SUV and the “radioactivity in tissue sample from viable ischemic myocardium (SUV)” value worked out at 0.49 ± 0.17 SUV.

The record behind these values is article PMC5477135, “Imaging of αvβ3 integrin expression in experimental myocardial ischemia with [^68Ga]NODAGA-RGD positron emission tomography” (Journal of Translational Medicine, 2017).
